Measurements as given in US20210324028A1 (Pfizer, published 2021).
Substitutions are numbered along the chain they refer to. Names and notes keep the numbering of the source.

T1: human IL-2Rβ (human, UniProt P14784 27-240, limits assumed)
T1 construct: also called hIL-2Rβ; IL-2 receptor beta
T1 sequence (looked up): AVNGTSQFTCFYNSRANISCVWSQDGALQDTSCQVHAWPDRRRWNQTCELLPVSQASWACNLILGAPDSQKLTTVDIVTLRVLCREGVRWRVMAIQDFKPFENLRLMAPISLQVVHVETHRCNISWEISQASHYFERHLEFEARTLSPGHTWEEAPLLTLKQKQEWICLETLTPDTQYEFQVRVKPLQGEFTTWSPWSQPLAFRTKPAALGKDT

B1: hIL-15 V49R/K11D (ligand)
chain: NWVNVISDLKDIEDLIQSMHIDATLYTESDVHPSCKVTAMKCFLLELQRISLESGDASIHDTVENLIILANNSLSSNGNVTESGCKECEELEEKNIKEFLQSFVHIVQMFINTGGGGSGHHHHHHHHGGGLNDIFEAQKIEWHE
B2: hIL-15 V49R/M109D (ligand)
chain: B1 chain with D11K, M109D
B3: hIL-15 V49R/K11E (ligand)
chain: B1 chain with D11E
B4: hIL-15 V49R/L69I (ligand)
chain: B1 chain with D11K, L69I
B5: hIL-15 V49R/N1T (ligand)
chain: B1 chain with N1T, D11K
B6: hIL-15 V49R/N72A (ligand)
chain: B1 chain with D11K, N72A
B7: hIL-15 V49R/N4E (ligand)
chain: B1 chain with N4E, D11K
B8: hIL-15 V49R/L69M (ligand)
chain: B1 chain with D11K, L69M
B9: hIL-15 V49R/N4Q (ligand)
chain: B1 chain with N4Q, D11K
B10: hIL-15 V49R/N1D (ligand)
chain: B1 chain with N1D, D11K
B11: hIL-15 V49R/N4M (ligand)
chain: B1 chain with N4M, D11K
B12: hIL-15 V49R/K11Y (ligand)
chain: B1 chain with D11Y
B13: hIL-15 V49R/N1A (ligand)
chain: B1 chain with N1A, D11K
B14: hIL-15 V49R/N72S (ligand)
chain: B1 chain with D11K, N72S
B15: hIL-15 V49R/L69A (ligand)
chain: B1 chain with D11K, L69A
B16: hIL-15 V49R/L69T (ligand)
chain: B1 chain with D11K, L69T
B17: hIL-15 V49R/Q108K (ligand)
chain: B1 chain with D11K, Q108K
B18: hIL-15 V49R/N72D (ligand)
chain: B1 chain with D11K, N72D
B19: hIL-15 V49R/M109A (ligand)
chain: B1 chain with D11K, M109A
B20: hIL-15 V49R/N72K (ligand)
chain: B1 chain with D11K, N72K
B21: hIL-15 V49R/K11L (ligand)
chain: B1 chain with D11L
B22: hIL-15 V49R/N4D (ligand)
chain: B1 chain with N4D, D11K
B23: hIL-15 V49R/K11N (ligand)
chain: B1 chain with D11N
B24: hIL-15 V49R/N1S (ligand)
chain: B1 chain with N1S, D11K
B25: hIL-15 V49R/K11R (ligand)
chain: B1 chain with D11R
B26: hIL-15 V49R/N4L (ligand)
chain: B1 chain with N4L, D11K
B27: hIL-15 V49R/Q108D (ligand)
chain: B1 chain with D11K, Q108D
B28: hIL-15 V49R/N1K (ligand)
chain: B1 chain with N1K, D11K
B29: hIL-15 V49R/Q108A (ligand)
chain: B1 chain with D11K, Q108A
B30: hIL-15 V49R/N4H (ligand)
chain: B1 chain with N4H, D11K
B31: hIL-15 V49R/K11T (ligand)
chain: B1 chain with D11T
B32: hIL-15 V49R/N1G (ligand)
chain: B1 chain with N1G, D11K
B33: hIL-15 V49R/L69S (ligand)
chain: B1 chain with D11K, L69S
B34: hIL-15 V49R/K11H (ligand)
chain: B1 chain with D11H
B35: hIL-15 V49R/N4W (ligand)
chain: B1 chain with N4W, D11K
B36: hIL-15 V49R/M109K (ligand)
chain: B1 chain with D11K, M109K
B37: hIL-15 V49R/N65K (ligand)
chain: B1 chain with D11K, N65K
B38: hIL-15 V49R/K11I (ligand)
chain: B1 chain with D11I
B39: hIL-15 V49R/K11Q (ligand)
chain: B1 chain with D11Q
B40: hIL-15 V49R/L69D (ligand)
chain: B1 chain with D11K, L69D
B41: hIL-15 V49R/N1Q (ligand)
chain: B1 chain with N1Q, D11K
B42: hIL-15 V49R/N1E (ligand)
chain: B1 chain with N1E, D11K
B43: hIL-15 V49R/L69V (ligand)
chain: B1 chain with D11K, L69V
B44: hIL-15 V49R/K11V (ligand)
chain: B1 chain with D11V
B45: hIL-15 V49R/K11S (ligand)
chain: B1 chain with D11S
B46: hIL-15 V49R/N4G (ligand)
chain: B1 chain with N4G, D11K
B47: hIL-15 V49R/M109S (ligand)
chain: B1 chain with D11K, M109S
B48: hIL-15 V49R/N1H (ligand)
chain: B1 chain with N1H, D11K
B49: hIL-15 V49R/N4A (ligand)
chain: B1 chain with N4A, D11K
B50: hIL-15 V49R/L69E (ligand)
chain: B1 chain with D11K, L69E
B51: hIL-15 V49R/Q108S (ligand)
chain: B1 chain with D11K, Q108S
B52: hIL-15 V49R/N65D (ligand)
chain: B1 chain with D11K, N65D

Columns and labels:
[1] = target: T2, human IL-15Rα (human, UniProt Q13261 31-205, limits assumed); test: SPR, steady state
T2 construct: also called hIL-15Rα; IL-15 receptor alpha

[2] = target: T1, human IL-2Rβ; test: SPR, steady state

T2 sequence (Q13261 31-205 limits assumed): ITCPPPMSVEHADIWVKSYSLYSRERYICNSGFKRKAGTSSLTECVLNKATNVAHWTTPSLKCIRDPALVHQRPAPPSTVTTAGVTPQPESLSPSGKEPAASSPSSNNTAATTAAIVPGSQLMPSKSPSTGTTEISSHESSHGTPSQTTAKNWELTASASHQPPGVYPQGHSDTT

| Binder | Kd [1] [nM] | Kd [2] [nM] |
| --- | --- | --- |
| B1 | 242 | > 500 |
| B2 | 288 | 339 |
| B3 | 159 | 160 |
| B4 | 93.1 | 306 |
| B5 | 104 | 249 |
| B6 | 117 | 148 |
| B7 | 79.8 | 311 |
| B8 | 74.5 | > 1000 |
| B9 | 59.5 | > 500 |
| B10 | 105 | 311 |
| B11 | 88.1 | 233 |
| B12 | 219 | 143 |
| B13 | 175 | 398 |
| B14 | 118 | 182 |
| B15 | 82.9 | > 500 |
| B16 | 63.6 | > 1000 |
| B17 | 85.4 | 249 |
| B18 | 105 | 101 |
| B19 | 198 | > 500 |
| B20 | 101 | > 500 |
| B21 | 142 | 92.2 |
| B22 | 103 | 365 |
| B23 | 217 | 291 |
| B24 | 140 | 194 |
| B25 | 140 | 138 |
| B26 | 98.6 | 429 |

| Binder | Kd [1] [nM] | Kd [2] [nM] |
| --- | --- | --- |
| B27 | 125 | 215 |
| B28 | 264 | > 500 |
| B29 | 161 | 462 |
| B30 | 81.5 | 96.4 |
| B31 | 169 | 225 |
| B32 | 160 | > 500 |
| B33 | 78.2 | > 500 |
| B34 | 147 | 104 |
| B35 | 143 | 438 |
| B36 | 215 | > 500 |
| B37 | 201 | 193 |
| B38 | 95.8 | 76 |
| B39 | 156 | 107 |
| B40 | 65.6 | > 500 |
| B41 | 115 | > 500 |
| B42 | 171 | 340 |
| B43 | 85.5 | > 1000 |
| B44 | 142 | 110 |
| B45 | 194 | 453 |
| B46 | 105 | > 500 |
| B47 | 190 | 362 |
| B48 | 151 | 235 |
| B49 | 98 | > 500 |
| B50 | 47.8 | > 1000 |
| B51 | 144 | 290 |
| B52 | 121 | > 500 |
